Data published in US20240384250A1, “FIBROBLAST GROWTH FACTOR 23 MODULATING COMPOUNDS” (THE UAB RESEARCH FOUNDATION, priority 2021, published 2024).
Entries after “also recorded” stand apart in the source; their conditions may differ.

T1: FGF23 (Homo sapiens, UniProt Q9GZV9)
T1 construct: purchased R&D Systems 2604FG025/CF (human) or 2629FG025/CF (mouse)
T1 sequence (Q9GZV9 25-251): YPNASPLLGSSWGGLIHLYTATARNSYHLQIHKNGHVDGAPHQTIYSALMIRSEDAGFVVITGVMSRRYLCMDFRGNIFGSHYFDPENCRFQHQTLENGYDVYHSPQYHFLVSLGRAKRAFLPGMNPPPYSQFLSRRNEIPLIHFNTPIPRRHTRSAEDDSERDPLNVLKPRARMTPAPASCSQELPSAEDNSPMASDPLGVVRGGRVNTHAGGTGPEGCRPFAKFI


Legend:
FGF23 = molecular target: T1, FGF23; assay: Plate-based binding assay, FGF23 coated, FLAG-sKL detected with anti-FLAG HRP; details: for binding of FLAG-sKL to coated FGF23 (absorbance at 450 nm): 10 ng FGF coated, 40 ng FLAG-sKL; for binding of FLAG-sKL to coated FGF23 compared with FGFR1c: 20 ng FGF23 coated, 80 ng FLAG-sKL
Method: Proteins were coated on 96-well plates (MaxiSorp; 439454, Thermo Fisher Scientific), and proteins were added to wells in 100 μl of enzyme-linked immunosorbent assay (ELISA) coating buffer (E107, Bethyl Laboratories) with a lid placed overtop and incubated at 4° C. overnight. Plates were washed 5× with 350 μl of assay buffer (50 mM Tris [pH 7.4], 200 mM NaCl, 0.01% Tween 20) on a 50 TS microplate washer (BioTek). Plates were blocked for 1 hour in 200 μl of assay buffer with 0.5% BSA. Plates were washed as before, and proteins were incubated on plates in 100 μl of assay buffer with 0.5% BSA. Proteins or heparin was incubated in orders described in the respective figure legends. Assays using FLAG-tag-based detection were incubated with anti-FLAG coupled to HRP at 1:20,000, and assays using Fc detection were incubated with anti-human Fc coupled to HRP at 1:10,000. Plates were washed as above, and 100 μl of 3,3′,5,5′-tetramethylbenzidine (TMB) substrate (E102, Bethyl Laboratories) was added for 15 to 20 minutes until positive wells developed a dark blue color. Reactions were stopped with ELISA stop solution (E115, Bethyl Laboratories) and analyzed using the Synergy HI plate reader (BioTek) at 450 nm wavelength. […] As a control to remove background absorbance values, wells were coated with an equal amount of BSA to match the amount of protein coated in experimental wells and treated the same as experimental wells. To study the effects of sKL on the binding between paracrine FGFs and FGFRs, plates were run as above except coated with paracrine FGFs. Fc-FGFR1 was preincubated with sKL or vehicle for 60 minutes, and then the combination was added to wells and the assay was run as before.

[1] = test system: phosphorylated ERK in HEK293T cells; assay: ERK phosphorylation in serum-starved HEK293 cells (Western blotting); type: cell-based, human
Method: (§1) The sample (20 μl) was loaded onto Mini-PROTEAN TGX Precast Gel 4-20% for experiments with <9 samples (4568094, Bio-Rad) or Criterion TGX Precast Gel 4-20% (5678094, Bio-Rad) for experiments with >9 samples. Gels were run in 1× Tris/Glycine/SDS buffer (1610732, Bio-Rad) at 150 V and stopped when the sample dye reached the end of the gel. Gels were removed and electrotransferred via a semi-dry cassette (1703940, Bio-Rad) in I× Tris/Glycine buffer (1610734, Bio-Rad) with 20% methanol. Gels were transferred onto polyvinylidene diflouride membranes (IPVH00010, Millipore) at 20 V for 1 hour. Membranes were then blocked in 5% dried milk with 0.5% Tween 20 diluted in Tris-buffered saline (TBST; pH 7.5) for 1 hour and probed with antibodies against specific antigens at 1:1000 in TBST with 5% dried milk. Blots were washed 3× for 5 minutes in TBST and probed with HRP-coupled secondary antibodies against specific species at 1:10,000 in TBST with 5% dried milk. Membranes were imaged on the SRX-101A X-ray film developer (Konica Minolta).
To determine the cellular activity of paracrine FGFs, the activation/phosphorylation of ERK in HEK293 cells after treatment was studied. HEK293 cells were seeded in 6-well plates in DMEM (26140079, Gibco) supplemented with I× Pen/Strep (15140122, Gibco) and 10% FBS (26140079, Gibco) and grown for 48 hours. Upon reaching 80% confluence, cells were serum starved overnight in DMEM and 1× Pen/Strep without FBS. The medium was changed, and cells were treated with sKL at 2 μg/ml or vehicle (sKL elution buffer: 25 mM Tris ph 8.0, 500 mM NaCl) for 15 minutes. Cells were then treated with various FGFs at 1.1 nM for 10 minutes. Cells were lysed in 200 μl of RIPA with the addition of a protease inhibitor (11836153001, Roche) and phosphatase inhibitors (P5726 and P0044, Sigma-Aldrich) for 30 minutes. The mixture was then centrifuged at 20,000 g for 60 minutes to remove all cell debris. One hundred microliters of 1× Laemmli sample buffer (1610737, Bio-Rad) with 1.42 M 2-mercaptoethanol was added, and samples were boiled for 5 minutes. Twenty microliters of samples was loaded onto 12% SDS-PAGE gels and analyzed using Western blotting for total and phosphorylated ERK.

FGF23 binding to FGFR2c = molecular target: T2, FGF23 binding to FGFR2c (Homo sapiens, UniProt P21802); assay: Pull-down of FGF23 with Fc-FGFR on protein A/G beads with sKL, heparin or PBS; details: with heparin, or alone
T2 construct: Fc-coupled FGFR ectodomains were immobilized on protein A/G beads; purchased R&D Systems 2604FG025/CF or 2629FG025/CF; 712FR050
Method: To study the interaction between Fc-tagged FGFR isoforms (Fc-FGFR), FGF isoforms, and sKL, immunoprecipitation studies were conducted. Protein A beads (6501, BioVision) and protein G beads (6511, BioVision) were used at 25 μl of a 50% stock slurry per sample in a total bead volume of 50 μl. Beads were washed 5× in activity buffer (50 mM Tris [pH 7.4], 200 mM NaCl, 0.01% Tween 20). Bead spin-down assays were all performed for 2 minutes at 5000 g. Beads were resuspended in 1 ml of activity buffer in a 1.5-ml snap cap tube. One microgram of Fc-FGFR1 to 4 was incubated with the beads for 1 hour on a bead rotator. Control samples were incubated with 2 μg of anti-FGF antibody instead of Fc-FGFR. Beads were then pelleted at 5000 g for 2 minutes and washed 5× with activity buffer. Beads were resuspended and incubated with different combinations of 500 ng of FGF, 1 μg of sKL, 1.6 United States Pharmacopeia (USP) units of heparin, or phosphate-buffered saline (PBS). Beads were incubated for 1 hour on a tube rotator, and beads were pelleted and washed as before. One hundred microliters of 1× Laemmli sample buffer (1610737, Bio-Rad) with 1.42 M 2-mercaptoethanol was added, and samples were boiled for 5 minutes. Samples were analyzed using SDS-PAGE and Western blotting.
as §1

T2 sequence (P21802 22-377 limits assumed): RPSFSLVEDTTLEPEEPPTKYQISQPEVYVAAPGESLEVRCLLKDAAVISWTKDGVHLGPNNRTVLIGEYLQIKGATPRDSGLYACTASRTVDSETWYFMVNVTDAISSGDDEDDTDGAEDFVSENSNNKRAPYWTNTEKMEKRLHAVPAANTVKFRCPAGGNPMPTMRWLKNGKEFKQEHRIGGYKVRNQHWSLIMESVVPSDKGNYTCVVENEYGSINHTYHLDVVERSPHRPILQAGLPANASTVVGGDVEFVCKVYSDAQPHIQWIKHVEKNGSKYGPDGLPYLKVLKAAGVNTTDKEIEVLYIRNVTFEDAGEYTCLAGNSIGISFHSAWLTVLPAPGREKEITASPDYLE

| binding of FLAG-sKL to coated FGF23 (absorbance at 450 nm) (FGF23) | binding of FLAG-sKL to coated FGF23 (absorbance at 450 nm) (FGF23; listed as FLAG-sKL) | binding of FLAG-sKL to coated FGF23 compared with FGFR1c (FGF23) | binding of FLAG-sKL to coated FGF23 compared with FGFR1c (FGF23; listed as FLAG-sKL) | FGF23 binding affinity, protein from HEK293 lysates instead of supernatants (FGF23; 100 ng FGF23 coated, normalized to sKL amounts) | FGF23 co-precipitation with Fc-FGFR2c (FGF23 binding to FGFR2c) | Molecule | phospho-ERK levels in cells treated with FGF2 ([1]; sKL 2 μg/ml 15 minutes before FGF2) | phospho-ERK levels in cells treated with FGF5 ([1]; sKL 2 μg/ml 15 minutes before FGF5) | ERK phosphorylation in cells incubated with FGF23 ([1]; sKL 2 μg/ml 15 minutes before FGF23) | phospho-ERK levels in cells treated with FGF8b ([1]; sKL 15 minutes before FGF8b) | ERK phosphorylation induced by FGF ([1]; FGF 1.1 nM for 10 minutes, absence of sKL) |
| --- | --- | --- | --- | --- | --- | --- | --- | --- | --- | --- | --- |
| bound FGF23 | only FGF23 bound FLAG-sKL | to a lesser extent | to a lower extent | higher |  | sKL: recombinant soluble α-klotho ectodomain, mouse aa 35-982 and human aa 34-981, FLAG- or Strep/His-tagged, purified from HEK293 cells (protein, left off: small tags and cut ends, recombinant soluble α-klotho ectodomain, mouse aa 35-982 and human aa 34-981, FLAG- or Strep/His-tagged, purified from HEK293 cells) EPGDGAQTWARFSRPPAPEAAGLFQGTFPDGFLWAVGSAAYQTEGGWQQHGKGASIWDTFTHHPLAPPGDSRNASLPLGAPSPLQPATGDVASDSYNNVFRDTEALRELGVTHYRFSISWARVLPNGSAGVPNREGLRYYRRLLERLRELGVQPVVTLYHWDLPQRLQDAYGGWANRALADHFRDYAELCFRHFGGQVKYWITIDNPYVVAWHGYATGRLAPGIRGSPRLGYLVAHNLLLAHAKVWHLYNTSFRPTQGGQVSIALSSHWINPRRMTDHSIKECQKSLDFVLGWFAKPVFIDGDYPESMKNNLSSILPDFTESEKKFIKGTADFFALCFGPTLSFQLLDPHMKFRQLESPNLRQLLSWIDLEFNHPQIFIVENGWFVSGTTKRDDAKYMYYLKKFIMETLKAIKLDGVDVIGYTAWSLMDGFEWHRGYSIRRGLFYVDFLSQDKMLLPKSSALFYQKLIEKNGFPPLPENQPLEGTFPCDFAWGVVDNYIQVDTTLSQFTDLNVYLWDVHHSKRLIKVDGVVTKKRKSYCVDFAAIQPQIALLQEMHVTHFRFSLDWALILPLGNQSQVNHTILQYYRCMASELVRVNITPVVALWQPMAPNQGLPRLLARQGAWENPYTALAFAEYARLCFQELGHHVKLWITMNEPYTRNMTYSAGHNLLKAHALAWHVYNEKFRHAQNGKISIALQADWIEPACPFSQKDKEVAERVLEFDIGWLAEPIFGSGDYPWVMRDWLNQRNNFLLPYFTEDEKKLIQGTFDFLALSHYTTILVDSEKEDPIKYNDYLEVQEMTDITWLNSPSQVAVVPWGLRKVLNWLKFKYGDLPMYIISNGIDDGLHAEDDQLRVYYMQNYINEALKAHILDGINLCGYFAYSFNDRTAPRFGLYRYAADQFEPKASMKHYRKIIDSNGFPGPETLERFCPEEFTVCTECSFFHTRKS | decreased phospho-ERK levels; also recorded: did not occur | decreased phospho-ERK levels; also recorded: did not occur | induced ERK phosphorylation; also recorded: increased pERK levels | did not occur |  |
|  |  |  |  |  | no FGF23 binding was detected | FGF23: recombinant fibroblast growth factor 23 protein from R&D Systems (protein) YPDTSPLLGSNWGSLTHLYTATARTSYHLQIHRDGHVDGTPHQTIYSALMITSEDAGSVVITGAMTRRFLCMDLHGNIFGSLHFSPENCKFRQWTLENGYDVYLSQKHHYLVSLGRAKRIFQPGTNPPPFSQFLARRNEVPLLHFYTVRPRRHTRSAEDPPERDPLNVLKPRPRATPVPVSCSRELPSAEEGGPAASDPLGVLRRGRGDARGGAGGADRCRPFPRFV |  |  |  |  | had no effect |
